Measurements published in the supplement of paper PMC10567573.

B1: SNX8 (parent)
chain: LHQETQLIHVYLPLTSHILRAFVN

Variants of: B1
Assay: protein stability index of a GFP-peptide fusion (GPS, HEK-293T) (PSI 1-6); higher = more stable
Conditions: c terminus: a fixed tail appended
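Also: lentivirally expressed fusions sorted by FACS into six bins by GFP to DsRed ratio, PSI derived from sequencing read proportions per bin multiplied by bin number.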

Protein stability index of substitutions, site by site:
Y11: T 1.89; G 2.29; L 2.05; K 2.95; P 2.78; M 3.64; R 1.86; F 2.14; C 3.22
P13: W 3.14; L 3.99; T 2.91; H 1.38; S 3; Y 1.95; K 1.72; Q 2.68; A 3.59; M 2.55; I 1.9; V 1.85; D 2.7; R 2.29
L7: A 2.53; Q 2.71; M 2.9; D 2.17; H 1.98; C 2.44; S 2.37; Y 1.91; K 2.32; N 2.1; I 2.73; G 2.15; E 1.87; T 3.64; R 4; P 3.31
R20: G 3.27; D 1.93; P 3; A 3.61; Q 1.89; C 2.94; Y 3.11; L 3.82; I 2.9; N 3.03; T 1.72; V 1.72; M 3.04; H 2.95
L12: S 1.7; M 2.71; V 1.91; Y 3.18; C 2.52; E 1.83; D 2.19; W 3.2; K 2.29; Q 3.42; N 2.08; F 2.58; R 2.48; P 2.21; H 3.23; G 3.44; T 2.49
T5: P 1.66; I 3.8; N 3.51; L 3.03; C 3.39; V 4.08; Y 1.85; W 2.22; G 2.26; E 1.98; M 2.39; R 2.75; H 2.17; F 2.83; D 1.78; A 2.03
S16: M 2; W 2.31; H 1.82; A 1.94; V 1.81; R 2.83; E 2.16; K 2.77; Y 2.08; I 1.47; Q 2.5; N 2.52; L 2.08; C 2.36
A21: Y 2.35; W 2.18; D 2.8; N 3.01; M 3.49; P 2.84; K 2.03; Q 2.01; T 1.84; E 2.48; F 1.38; I 3.77; R 2.63; C 2.73
I18: P 3.99; A 1.85; T 2.89; W 2.33; V 3.55; L 3.11; R 2.44; D 2.65; K 1.97; N 1.79; F 1.93; G 1.71; Q 2.27; S 3.95; C 3.75; H 2.63; M 1.88; Y 2.39
L14: Y 1.58; G 3.49; W 1.8; D 2.72; V 3.59; P 2.64; F 1.31; C 3.23; R 2.49; K 3.14; Q 3.75; M 2.41; A 2.98; H 2.13; S 2; T 2.29; N 4.27
H17: M 2.52; N 2.47; T 1.85; R 2.42; G 1.77; Q 2.97; L 1.69; W 3.19; S 3.54; P 2.34; D 2.58; F 3.82; I 2.46; E 2.75; A 2.06; V 1.92; Y 2.6; C 1.58
